Patent publication US20260209387A1, “SINGLE-DOMAIN ANTIBODY FOR INHIBITION OF NEUTROPHIL ELASTASE ACTIVITY” (UNIVERSITE DE LIEGE, priority 2023, published 2026)

Assays:
[1] = molecular target: T1, hNE (Homo sapiens, UniProt P08246); assay: Spray-dried powder: hNE inhibition after solubilizing; type: biochemical; conditions: [hNE]:[ISVD] 1:1
T1 construct: purchased Elastin Products Company (EPC)
T1 sequence (P08246 30-247): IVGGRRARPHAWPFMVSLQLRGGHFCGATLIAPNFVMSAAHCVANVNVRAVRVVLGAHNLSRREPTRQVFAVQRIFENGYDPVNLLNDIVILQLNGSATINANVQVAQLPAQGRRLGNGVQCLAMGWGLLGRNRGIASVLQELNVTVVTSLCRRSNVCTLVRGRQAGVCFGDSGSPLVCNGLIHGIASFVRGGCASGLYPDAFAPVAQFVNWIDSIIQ
Protocol: (§1) Dry powders for inhalation were formulated with the NbE201 and the NbE201-PEG40. The spray dryer used was the PROCEPT's modular 4M8-Trix.
The inhibitory activity was also assessed after solubilizing the powders. The inhibitory capacity of the Nbs were assessed in an in vitro assay at a [hNE]:[ISVD] ratio of 1:1. The inhibition capacity of the solubilized powders was compared to the inhibition capacity of their respective controls (eg. untreated NbE201 or NbE201-PEG40). […] The protein concentration used to calculate the hNE: ISVD ratio was the concentration read after centrifugation.

[2] = Spray-dried powder: concentration before/after centrifugation; type: physicochemical; conditions: spray-dried powder solubilized and dialysed; 10 000 g ten minutes
Protocol: as §1
The integrity of the ISVD within the spray-dried powders was then evaluated after solubilizing the powders into water followed by a dialysis into phosphate buffer (50 mM, pH7). Protein concentration was measured by reading the absorbance at 280 nm before and after centrifugation at 10 000 g for ten minutes in order to detect the presence of insoluble aggregates.

[3] = Aggregates detection by Nanoparticle Tracking Analysis; type: physicochemical; conditions: after nebulization; for average counted particles per frame (NTA): 0.25 mg/ml
Protocol: 2.3.5 Aggregates Detection. Protein aggregates were visualized by Nanoparticle Tracking Analysis (NTA) (ZetaView, 220 Twin Laser, Particle Metrix, Ammersee, Germany), a technique used for measuring single particle size and concentration. NbE201, NbE201-PEG10 and NbE201-PEG40 solutions (0.25 mg/ml) were analysed before and after nebulization. 11 positions were analysed for which following parameters were used: • Laser wavelength: 488 nm • Scatter, no fluorescence • Sensitivity: 80 • Shutter: 100

[4] = Physical stress (nebulization, agitation, freeze/thaw): concentration by A280 nm before/after centrifugation; type: physicochemical; conditions: for Initial concentration percentage after centrifugation: 10 000 g 10 min
Protocol: A 0.25 mg/ml solution of NbE201, NbE201-PEG10 or NbE201-PEG40 was prepared and divided in order to apply the following conditions: control, 1 or 4 h of agitation with a magnetic bar, nebulization, 5 or 10 freeze/thaw cycles.
2.3.1 Stability towards agitation. 100 μl of a 0.25 mg/ml ISVDs solution were agitated in a 1 ml glass vial with a 2×5 mm magnetic bar (VWR, Radnor, USA) at 200 rpm during 1 or 4 hours.
2.3.2 Stability towards Nebulization. 300 μl of a 0.25 mg/ml ISVDs solution were nebulized with a MeSH nebulizer (InnoSpire Go, Phillips, Amsterdam, The Netherlands).
2.3.3 Stability towards freezing/thawing. 100 μl of a 0.25 mg/ml ISVDs solution underwent 5 or 10 freeze/thaw (F/T) cycles. Freezing was performed in a −20° C. freezer and thawing was performed at RT.
2.3.4 Concentration measurements. Concentrations and UV spectra were measured by spectrophotometry (NanoDrop 2000/2000c spectrophotometer, ThermoFisher). Concentrations were determined based on the absorbance at 280 nm. NbE201 and NbE201-Cter mass extinction coefficients applied to the measurements were 1.888 and 1.716 (mg/mL)^−1 cm^−1 respectively. Regarding the ISVDs exposed to physical stresses, the concentration was read before and after centrifugation at 10 000 g at 4° C. for 10 min.

[5] = molecular target: T2, porcine pancreatic elastase (pPE) (Sus scrofa, UniProt P00772); assay: pPE inhibition, substrate Succinyl-Ala-Ala-Ala-paraNitroAnilide; type: biochemical; conditions: chromogenic substrate
T2 construct: purchased Sigma
Source text: To determine whether NbE201 was specific for hNE, we first investigated its ability to inhibit several serine proteases: pancreatic elastase from pork (pPE, 39.2% sequence identity, from Sigma), mice neutrophil elastase (mNE, 74.9% sequence identity, from EPC) and with two other human serine proteases present in the lung: proteinase 3 (hPR3 from EPC, 54.7% sequence identity) and cathepsin G (hCG from Calbiochem, 36.7% sequence identity). The substrate used were Succinyl-Ala-Ala-Ala-paraNitroAnilide (1 mM in 0.1 M Tris pH 7.5 with NaCl 0.5 M and NaN3 0.01%, % w/v from Sigma-Aldrich) for pPE, MeOSuc-Ala-Ala-Pro-Val-AMC (100 μM in Tris 50 mM, NaCl 1 M, 0.05% (% w/v) Brij-35, pH 7.5) for mNE, N-Succinyl-Ala-Ala-Pro-Phe p-nitroanilide (0.45 mM in 100 mM HEPES pH 7.5, from Sigma Aldrich) for hCG and Boc-Ala-Ala-Nva-SBzl (0.22 mM in 100 mM MOPS pH 5.0 0.5 M NaCl, 100 μM DTNB, DMSO 10%, from EPC) for PR3. mNE (rmELA2 from R&D systems, United Kingdom) was first activated according to the supplier information. In brief, mNE was incubated with recombinant mouse active cathepsin C/DPPIy (rmCathepsin C from R&D systems) in MES 50 mM, NaCl 50 mM, pH 5.5 for 2 h at 37° C. The enzyme concentration in the assay was 6 nM, 14.7 nM, 25 nM, 5 nM for PPE, mNE, hCG and hPR3, respectively. Different molar ratios of NbE201: Enzyme were tested. […]

[6] = molecular target: T1, hNE; assay: hNE inhibition, hydrolysis of chromogenic substrate N-Succinyl-Ala-Ala-Ala-paraNitroAnilide; type: biochemical; conditions: hNE vs mNE
Protocol: Inhibition of the hydrolysis of a chromogenic substrate. […] Briefly, hNE (Elastin products company, EPC, United States) was resuspended at 1 mg·mL^−1 in 50 mM sodium acetate buffer pH 5 containing 100 mM NaCl and stored at 4° C. The substrate Succinyl-Ala-Ala-Ala-paraNitroAnilide was dissolved at 1 mM in 0.1 M Tris pH 7.5 with NaCl 0.5 M and NaN3 0.01% (% w/v) and stored at 4° C. 230 μl of substrate (1 mM) were mixed with 10 μl of Bovine Serum Albumin 9 μM (BSA, Sigma-Aldrich, Germany) and incubated 20 min at 25° C. in a clear flat bottom 96-well plate (Greiner Bio-One, Belgium). […] The absorbance at 410 nm was measured every min for 60 minutes in a SpectraMax M2e Microplates Reader (Molecular Devices, California, USA). The initial velocity determined in the presence of the ISVD at different Nb: hNE ratios was compared to that measured in the absence of the ISVD, to determine the residual activity. […]
The absorbance at 410 nm was measured every min for 60 minutes. The initial velocity determined in the presence of the inhibitor at different inhibitor: hNE ratios was compared to that measured in the absence of the inhibitor, to determine the residual activity. […] The hNE activity was monitored at 410 nm for 10 minutes using the spectrophotometer Specord 50 Plus (Analytik Jena) and data were collected with the WinAspectPlus software. […]

[7] = hNE + Solubilized powder, with aggregates
[8] = hNE + Solubilized powder, without aggregates (after centrifugation)

T2 sequence (P00772 27-266): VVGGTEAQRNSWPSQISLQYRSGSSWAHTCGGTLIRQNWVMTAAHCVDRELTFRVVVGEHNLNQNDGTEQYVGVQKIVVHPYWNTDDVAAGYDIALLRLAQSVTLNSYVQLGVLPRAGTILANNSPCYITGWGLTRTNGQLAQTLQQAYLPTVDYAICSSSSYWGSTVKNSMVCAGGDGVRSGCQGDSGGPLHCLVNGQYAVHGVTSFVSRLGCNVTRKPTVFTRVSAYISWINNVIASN

B1: NbE201: anti-hNE ISVD (VHH/nanobody) from immunized lama, amino acid sequence SEQ ID NO: 4 (protein)
VHH: QVQLQESGGGLVQAGGSLRLSCVVPGRTISLYRMGWFRQAPGKEREFVAGINWSGDMTDYVDSVKGRFTISRDNAKNTVYLEMNSLKPEDTAIYYCTADPKLLPLADSSYGYWGQGTQVTVSS
hNE Inhibition percentage ([1]; hNE + Control sdAb (untreated)): 76 ± 1%
hNE Inhibition percentage [1, 7]: 48 ± 5%
hNE Inhibition percentage [1, 8]: 78 ± 2%
concentration after centrifugation as % of concentration before centrifugation [2]: 53±3%
average counted particles per frame (NTA) [3]: 228
size of counted particles, percentile 10 [3]: 22.3±12 nm
size of counted particles, percentile 50 [3]: 138±8 nm
size of counted particles, percentile 90 [3]: 342.8±26 nm
Initial concentration percentage before centrifugation ([4]; Agitation (1 h)): 93 ± 4%
Initial concentration percentage after centrifugation ([4]; Agitation (1 h)): 54 ± 12% (****)
Initial concentration percentage before centrifugation ([4]; Agitation (4 h)): 77 ± 6% (**)
Initial concentration percentage after centrifugation ([4]; Agitation (4 h)): 27 ± 19% (****)
Initial concentration percentage before centrifugation ([4]; Control): 100 ± 0%
Initial concentration percentage after centrifugation ([4]; Control): 100 ± 0% ^
Initial concentration percentage before centrifugation ([4]; F/T 5x): 96 ± 8%
Initial concentration percentage after centrifugation ([4]; F/T 5x): 85 ± 10% (*)
Initial concentration percentage before centrifugation ([4]; F/T 10x): 103 ± 5%
Initial concentration percentage after centrifugation ([4]; F/T 10x): 75 ± 9% (**)
Initial concentration percentage before centrifugation ([4]; Nebulization): 73% ± 3% (***)
Initial concentration percentage after centrifugation ([4]; Nebulization): 31 ± 2% (****)
inhibition of porcine pancreatic elastase [5]: does not inhibit
inhibitory activity to hNE relative to mNE [6]: about 10 times

B2: NbE201-PEG40: NbE201-Cter conjugated via C-terminal cysteine to branched 40 kDa PEG-maleimide (conjugate)
VHH: QVQLQESGGGLVQAGGSLRLSCVVPGRTISLYRMGWFRQAPGKEREFVAGINWSGDMTDYVDSVKGRFTISRDNAKNTVYLEMNSLKPEDTAIYYCTADPKLLPLADSSYGYWGQGTQVTVSSSPSTPPTPSPSTPPC
hNE Inhibition percentage ([1]; hNE + Control sdAb (untreated)): 70 ± 2%
hNE Inhibition percentage [1, 7]: 67 ± 2%
hNE Inhibition percentage [1, 8]: 72 ± 1%
concentration after centrifugation as % of concentration before centrifugation [2]: 97±2%
average counted particles per frame (NTA) [3]: far below that threshold
Initial concentration percentage before centrifugation ([4]; Agitation (1 h)): 99 ± 1%
Initial concentration percentage after centrifugation ([4]; Agitation (1 h)): 98 ± 1%
Initial concentration percentage before centrifugation ([4]; Agitation (4 h)): 98 ± 1%
Initial concentration percentage after centrifugation ([4]; Agitation (4 h)): 99 ± 1%
Initial concentration percentage before centrifugation ([4]; Control): 100 ± 0%
Initial concentration percentage after centrifugation ([4]; Control): 99 ± 1%
Initial concentration percentage before centrifugation ([4]; F/T 5x): 97 ± 2%
Initial concentration percentage after centrifugation ([4]; F/T 5x): 99 ± 1%
Initial concentration percentage before centrifugation ([4]; F/T 10x): 97 ± 2%
Initial concentration percentage after centrifugation ([4]; F/T 10x): 97 ± 3%
Initial concentration percentage before centrifugation ([4]; Nebulization): 88 ± 3% (****)
Initial concentration percentage after centrifugation ([4]; Nebulization): 88 ± 3% (****)
